Molecular target: TetR(B) (UniProt P04483 1-207)
Assay: cytometric bead binding assay

Chain of TetR(B) (P04483 whole entry): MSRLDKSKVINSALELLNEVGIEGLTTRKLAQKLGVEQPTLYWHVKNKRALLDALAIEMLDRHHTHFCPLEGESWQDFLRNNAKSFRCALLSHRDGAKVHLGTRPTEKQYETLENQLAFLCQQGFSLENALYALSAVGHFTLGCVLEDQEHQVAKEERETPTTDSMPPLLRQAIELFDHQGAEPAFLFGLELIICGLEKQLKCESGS

B1: 5-1.2m2 (structured_RNA)
RNA: GGAUCCAGGCAGUGUAAGGUCGAUACGGACGGAAUGUGAUGGCCUGGAUCCAAA
binding result: no binding

Reference: article PMC3351163
